In PMC10722498, “Fixing Flavins: Hijacking a Flavin Transferase for Equipping Flavoproteins with a Covalent Flavin Cofactor” (Journal of the American Chemical Society, 2023):

Tests used:
[1] = molecular target: T1, miniSOG (Arabidopsis thaliana, UniProt P93025, I387M/N390S/S394T/S409G/C426G/A437D/T438I/Q440S/K441G/I442A/R443T/F470L); assay: X-ray crystal structure […] Å; MS; format: binding; conditions: miniSOG-F2; covalent; phosphoester to OG1 of Thr57; attached in vivo by ApbE
T1 construct: gene PHOT2; engineered LOV domain of phototropin 2, 106 residues, several mutations abolishing flavin-cysteine adduct; recombinant, coexpressed with ApbE

[2] = molecular target: T2, miniSOG (Arabidopsis thaliana, UniProt P93025, I387M/N390S/S394T/S409G/C426G/F470L, form not given); assay: SDS-PAGE and MS; format: binding; conditions: covalent; attached in vivo by ApbE
T2 construct: gene PHOT2; engineered LOV domain of phototropin 2, 106 residues, several mutations abolishing flavin-cysteine adduct; recombinant, coexpressed with ApbE

[3] = molecular target: T3, PpSB1-LOV (Pseudomonas putida, UniProt Q88E39); assay: absorbance of purified holoprotein; SDS-PAGE fluorescence; ESI-MS; format: binding; conditions: dissociable, noncovalent FMN
T3 construct: gene PP_4629; dimer
T3 sequence (Q88E39 1-142): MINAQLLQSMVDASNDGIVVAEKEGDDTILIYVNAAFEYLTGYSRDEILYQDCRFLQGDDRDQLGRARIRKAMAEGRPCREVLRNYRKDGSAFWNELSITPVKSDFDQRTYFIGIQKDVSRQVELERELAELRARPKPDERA

[4] = substrate: NC(=O)N/N=C/c1ccc([N+](=O)[O-])o1; assay: steady-state kinetics; format: biochemical, Bacillus tequilensis
From the text: steady-state kinetics on BtNR

[5] = BtNR-F3, covalent FMN 100% (cofactor)

`Cc1cc2nc3c(=O)[nH]c(=O)nc-3n(C[C@H](O)[C@H](O)[C@H](O)COP(=O)(O)O)c2cc1C` [FMN] was tested, and the “X-ray crystal structure 2.0 Å; MS” value [1] was “the introduced phosphoester bond between OG1 of Thr57 and the phosphate of FMN”, the “SDS-PAGE and MS” value [2] was “SDS-PAGE and MS analyses revealed that both proteins were fully covalently flavinylated” and the “absorbance of purified holoprotein; SDS-PAGE fluorescence; ESI-MS” value [3] was “the wild-type protein did not yield in-gel fluorescence as it contains a dissociable FMN”.

B1: BtNR (Bacillus tequilensis) (protein)
chain: MADIKKQILDAYNFRHATKEFDPNKKVSDSDFEFILETGRLSPSSLGLEPWKFVVVQNPEFREKLREYTWGAQKQLPTASHFVLILARTAKDIKYNADYIKRHLKEVKQMPQDVSEGYISKTEEFQKNDLHLLESDRTLFDWASKQTYIALGNMMTAAAQIGVDSCPIEGFQYDHIHRILEEEGLLENGSFDISVMAAFGYRVRDPRPKTRSAVEDVVKWV
notes: recombinant, coexpressed with ApbE, purified
In the case of B1, the Km ([4]; dissociable FMN) is reported as 64 ± 11.5 µM, the kcat ([4]; dissociable FMN) is reported as 32 ± 2.3 s⁻¹ and the kcat/Km ([4]; dissociable FMN) is reported as 500000 M⁻¹ s⁻¹.

B2: BtNR (Bacillus tequilensis; A11D/A17T/F14S/H16A/N13L/R15G/Y12G) (protein)
chain: MADIKKQILDDGLSGATTKEFDPNKKVSDSDFEFILETGRLSPSSLGLEPWKFVVVQNPEFREKLREYTWGAQKQLPTASHFVLILARTAKDIKYNADYIKRHLKEVKQMPQDVSEGYISKTEEFQKNDLHLLESDRTLFDWASKQTYIALGNMMTAAAQIGVDSCPIEGFQYDHIHRILEEEGLLENGSFDISVMAAFGYRVRDPRPKTRSAVEDVVKWV
notes: as for B1
With B2 the Km [4, 5] was 42 ± 6.6 µM, the kcat [4, 5] was 4.5 ± 0.2 s⁻¹ and the kcat/Km [4, 5] was 110000 M⁻¹ s⁻¹.
